Experimental findings from article PMC4894720 are described below.

In series [1] the target is T1, PPARδ;RXRα (Homo sapiens;Homo sapiens?, UniProt Q03181;P19793 1-441;1-462, |). Kind of series: EMSA.
For series [2], the target named is T1, PPARδ;RXRα. Kind of series: competition.

T1 sequence (Q03181 whole entry, stated change not applied, chain 1 of 2): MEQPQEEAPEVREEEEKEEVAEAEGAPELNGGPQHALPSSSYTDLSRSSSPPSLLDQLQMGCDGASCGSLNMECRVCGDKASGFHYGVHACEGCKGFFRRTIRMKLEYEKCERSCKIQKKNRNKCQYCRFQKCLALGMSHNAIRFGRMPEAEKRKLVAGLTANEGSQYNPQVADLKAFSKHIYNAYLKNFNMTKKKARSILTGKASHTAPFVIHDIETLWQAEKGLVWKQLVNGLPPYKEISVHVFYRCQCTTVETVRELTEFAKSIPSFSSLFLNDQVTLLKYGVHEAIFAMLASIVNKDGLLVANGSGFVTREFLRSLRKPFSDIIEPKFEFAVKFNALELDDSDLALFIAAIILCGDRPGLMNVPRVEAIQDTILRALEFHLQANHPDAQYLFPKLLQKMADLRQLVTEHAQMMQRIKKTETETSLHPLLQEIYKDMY
T1 sequence (P19793 whole entry, stated change not applied, chain 2 of 2): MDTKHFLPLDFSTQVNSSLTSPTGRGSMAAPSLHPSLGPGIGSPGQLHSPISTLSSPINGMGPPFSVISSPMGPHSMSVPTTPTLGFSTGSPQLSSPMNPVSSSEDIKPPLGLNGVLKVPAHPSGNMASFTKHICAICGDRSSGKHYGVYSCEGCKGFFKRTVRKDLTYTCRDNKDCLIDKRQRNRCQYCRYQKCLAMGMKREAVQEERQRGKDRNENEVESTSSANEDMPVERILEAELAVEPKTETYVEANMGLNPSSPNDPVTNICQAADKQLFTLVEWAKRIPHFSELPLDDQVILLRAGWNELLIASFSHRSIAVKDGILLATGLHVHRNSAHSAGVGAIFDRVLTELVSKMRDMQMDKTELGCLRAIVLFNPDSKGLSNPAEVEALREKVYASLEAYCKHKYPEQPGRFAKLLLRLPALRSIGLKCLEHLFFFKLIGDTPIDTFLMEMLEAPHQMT

B1: LDLR-PPRE(WT) biotin probe (dsDNA)
DNA 1: TCTCTGTGGCTTAGGGGTTCAAGTTCAACTGTGAAAGCCC
DNA 2: GGGCTTTCACAGTTGAACTTGAACCCCTAAGCCACAGAGA
With B1, the binding result with PPARδ;RXRα [1] was “binds”.

B2: LDLR-PPRE(WT) unlabeled competitor (dsDNA)
DNA 1: B1 DNA 1
DNA 2: B1 DNA 2
B2: the binding result with PPARδ;RXRα [2] is given as “binds”.
